# Laboratory results taken from paper PMC4452343, “Monitoring β-arrestin recruitment via β-lactamase enzyme fragment complementation: purification of peptide E as a low-affinity ligand for mammalian bombesin receptors” (PLoS ONE, 2015).
# Target: gastrin-releasing peptide receptor (human) (UniProt P30550)
# Sequence (P30550 whole entry): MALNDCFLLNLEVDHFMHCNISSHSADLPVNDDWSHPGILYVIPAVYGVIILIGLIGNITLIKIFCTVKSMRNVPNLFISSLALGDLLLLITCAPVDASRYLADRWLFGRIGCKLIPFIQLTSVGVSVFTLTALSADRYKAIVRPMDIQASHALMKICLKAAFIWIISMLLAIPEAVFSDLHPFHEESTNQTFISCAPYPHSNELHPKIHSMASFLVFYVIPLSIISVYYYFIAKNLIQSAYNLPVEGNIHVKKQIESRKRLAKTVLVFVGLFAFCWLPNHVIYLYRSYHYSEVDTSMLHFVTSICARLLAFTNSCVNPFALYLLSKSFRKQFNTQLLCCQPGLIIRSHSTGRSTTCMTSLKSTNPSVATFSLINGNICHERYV
binder,measurement,value
VPLPAGGGTVLTKMYPRGNHWAVGHLM [gastrin-releasing peptide],EC50 of NFAT-luciferase reporter activation in CHO cells expressing hGRPR,0.12 nM
